Stoichiometry N (DkTx per TRPV1 tetramer) data for one molecule are collected here from article PMC4911334.

The assay deals with minimal functional rat TRPV1 construct, tetramer reconstituted in lipid nanodisc (rat) (UniProt O35433). As to the kind of experiment: cryo-EM structure.
UniProt O35433, sequence (O35433 whole entry): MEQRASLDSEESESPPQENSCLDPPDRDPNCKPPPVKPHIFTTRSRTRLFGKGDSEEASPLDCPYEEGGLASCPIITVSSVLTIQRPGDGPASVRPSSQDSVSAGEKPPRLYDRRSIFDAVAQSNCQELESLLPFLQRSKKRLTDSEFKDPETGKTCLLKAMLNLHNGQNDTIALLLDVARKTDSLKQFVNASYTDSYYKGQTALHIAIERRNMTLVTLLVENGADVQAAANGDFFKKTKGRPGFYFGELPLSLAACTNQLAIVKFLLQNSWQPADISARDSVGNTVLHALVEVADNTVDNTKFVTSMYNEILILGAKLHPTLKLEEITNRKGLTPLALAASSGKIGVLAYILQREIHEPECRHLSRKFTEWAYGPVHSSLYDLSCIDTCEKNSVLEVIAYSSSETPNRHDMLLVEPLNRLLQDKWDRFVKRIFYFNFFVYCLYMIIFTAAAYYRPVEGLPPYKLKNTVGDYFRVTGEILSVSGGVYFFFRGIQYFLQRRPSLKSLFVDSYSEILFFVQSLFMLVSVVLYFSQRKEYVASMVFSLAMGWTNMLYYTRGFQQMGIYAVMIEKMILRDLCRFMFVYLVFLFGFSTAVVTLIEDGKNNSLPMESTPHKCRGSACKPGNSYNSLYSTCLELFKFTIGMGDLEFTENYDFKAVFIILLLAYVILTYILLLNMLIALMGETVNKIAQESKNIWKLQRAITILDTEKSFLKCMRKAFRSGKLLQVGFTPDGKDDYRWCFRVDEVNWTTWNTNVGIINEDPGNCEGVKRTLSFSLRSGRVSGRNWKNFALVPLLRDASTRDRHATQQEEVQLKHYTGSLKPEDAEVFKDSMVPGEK

B1: double-knot toxin (DkTx) (peptide)
chain: DCAKEGEVCSWGKKCCDLDNFYCPMEFIPHCKKYKPYVPVTTNCAKEGEVCGWGSKCCHGLDCPLAFIPYCEKYRGRND
In turn, B1 displayed a stoichiometry N (DkTx per TRPV1 tetramer) of 2.
